Measured values reported in article PMC4635203.

T1: LUZ24 gp4 (Mip) (Pseudomonas phage LUZ24) (UniProt A9J6U1)
T1 sequence: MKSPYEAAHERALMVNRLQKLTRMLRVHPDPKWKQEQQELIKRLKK

T2: MvaT-His (Pseudomonas aeruginosa (PAO1?)) (UniProt Q9HW86)
T2 sequence: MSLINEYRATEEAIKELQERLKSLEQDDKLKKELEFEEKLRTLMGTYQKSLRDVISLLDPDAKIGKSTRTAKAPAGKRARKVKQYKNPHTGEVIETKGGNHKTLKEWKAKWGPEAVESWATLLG

B1: MvaT (PA4315) prey fragment, amino acids 1-80 (domain or fragment)
chain: MSLINEYRATEEAIKELQERLKSLEQDDKLKKELEFEEKLRTLMGTYQKSLRDVISLLDPDAKIGKSTRTAKAPAGKRAR

What was measured:
[1] = target: T1, LUZ24 gp4 (Mip) (Pseudomonas phage LUZ24); assay: EMSA
[2] = target: T2, MvaT-His (Pseudomonas aeruginosa (PAO1?)); assay: EMSA
[3] = target: LUZ24 gp4 (yeast two-hybrid bait) (Pseudomonas aeruginosa phage LUZ24); assay: two-hybrid; alpha-galactosidase activity of the yeast two-hybrid pairs, in milliunits per ml per cell, for a relative comparison of interaction strengths

Row | Molecule | binding [1] | binding [2] | α-Gal activity (milliunits per ml per cell) [3]
1 | CATGAGGCCAGGACGTTGTTCATGAAAACCGAATAATCGTTTCGAATGATGGTTTGCAATTATTAATGTCGAATGGAATGAATGTGCCATATCTCCATAAATAAAAAGGAAGTTTGTCCAATACTTGAGAAACTACTTTAAGAAGGTTTTGTCGGTAGAAAGCGATCAATC (double strand) [ptxS upstream region 150 bp] | no binding | binds | 
2 | B1 |  |  | 23.1
